Test results: patent publication US20160068605A1 (Janssen / Centocor, published 2016)
Changes are numbered by the printed parent chain.

Columns and labels:
[1] = target: T1, human CD123 SP1 ECD displayed on pDisplay-transfected cells (human, UniProt P26951 20-305); assay: MSD cell binding on 293F pDisplay cells; fold change over background; parental 293F cells as control
T1 construct: ECD anchored on the surface of stably transfected HEK293 cells by the PDGFR transmembrane domain; also called hCD123 SP1 cells; hCD123 cells
T1 sequence: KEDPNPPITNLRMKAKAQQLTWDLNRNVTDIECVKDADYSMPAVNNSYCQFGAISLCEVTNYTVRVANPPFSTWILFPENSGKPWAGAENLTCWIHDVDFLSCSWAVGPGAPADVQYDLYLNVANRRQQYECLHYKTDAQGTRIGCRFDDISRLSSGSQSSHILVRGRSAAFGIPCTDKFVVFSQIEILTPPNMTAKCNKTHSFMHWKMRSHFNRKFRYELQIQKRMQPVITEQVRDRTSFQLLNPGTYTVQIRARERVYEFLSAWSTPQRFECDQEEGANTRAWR

[2] = target: T2, human CD123 SP2 ECD displayed on pDisplay-transfected cells (human, UniProt P26951 101-305); assay: as above
T2 construct: ECD anchored on the surface of stably transfected HEK293 cells; also called hCD123 SP2 cells; pDisplay CD123SP2
T2 sequence: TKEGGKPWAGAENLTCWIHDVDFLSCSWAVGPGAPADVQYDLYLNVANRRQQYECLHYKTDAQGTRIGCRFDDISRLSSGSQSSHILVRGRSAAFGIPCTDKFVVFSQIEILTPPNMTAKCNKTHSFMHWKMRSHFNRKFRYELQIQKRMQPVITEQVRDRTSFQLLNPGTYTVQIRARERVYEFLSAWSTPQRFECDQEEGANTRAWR

[3] = target: T3, cyno CD123 ECD displayed on pDisplay-transfected cells (cynomolgus monkey); assay: as above
T3 construct: ECD anchored on the surface of stably transfected HEK293 cells; also called cynoCD123 SP1 cells; cynoCD123 cells
T3 chain: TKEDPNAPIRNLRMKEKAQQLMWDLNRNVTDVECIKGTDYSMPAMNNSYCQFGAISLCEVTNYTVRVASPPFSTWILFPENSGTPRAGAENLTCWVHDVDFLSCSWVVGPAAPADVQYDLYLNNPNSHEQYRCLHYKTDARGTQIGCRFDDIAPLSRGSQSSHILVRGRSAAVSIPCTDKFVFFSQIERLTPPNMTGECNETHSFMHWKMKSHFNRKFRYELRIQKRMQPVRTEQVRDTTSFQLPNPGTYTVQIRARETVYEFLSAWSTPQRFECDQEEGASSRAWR

[4] = target: IL3RA-PK (CD123 tagged with ProLink) in HEK293 IL3RA-PK/CSF2RB-EA cells (UniProt P26951 19-378); assay: cell-based or functional assay
[5] = target: T3, cyno CD123 ECD displayed on …; assay: MSD-CAT on pDisplay cells
Method: (§1) After equilibration the plate was centrifuged for 5 min ˜1000 rpm and free anti-CD3 detected on the supernatant. […] The assay buffer was removed without washing and 50 μL/well of 0.7 μg/mL of biotinylated antigen in assay buffer were added to MSD plates and incubated overnight (˜16 hr at 4° C.). After overnight incubation, the plates were blocked by adding 150 μL/well of assay buffer without removing coating antigen, incubated for ˜1 hr at ambient temperature and washed 5 times with wash buffer (assay buffer without BSA). 50 μL/well of the supernantants from samples plate were transferred to antigen-coated plates, incubated for 60 min, and then washed three times with wash Buffer. After this 50 μL per well of ruthenium labeled detection antibody(anti-human H+L) were added and incubated for 1 hr. After 1 hr the plates were washed and 150 μL of MSD Read Buffer (prepared by diluting 1:4 of stock into d. H₂O) were added per well. The plates were read immediately on the MSD Sector Imager 6000 Reader for luminescence levels. ECL signal detected by MSD was expressed in term of % free antibody in the mixture and the data was analyzed to determine affinity using a user defined equation (derived from the law of mass action) introduced in Prism software.

[6] = target: T4, Recombinant human CD123 SP1 ECD-His tag protein (human, UniProt P26951 20-305); assay: SPR Biacore 3000, captured Fab
T4 construct: bought from R&D Systems (#301-R3/CF); biotinylated for some assays; also called rhCD123 SP1; huCD123 ECD SP1
T4 sequence: T1 sequence
Method: (§2) Kinetic studies were performed at 25° C. using a Biacore 3000 (BIAcore, Inc., now part of GE Healthcare). […] Sheep anti-Human Fd specific antibody (The binding site Prod # PC075) was covalently attached to two flow cells (normally 3 and 4) of the carboxymethyl dextran coated gold surfaces (CM-5 Chip, Biacore). The carboxymethyl groups of dextran were activated with N-Ethyl-N′-(3-Dimethylaminopropyl)carbodiimide (EDC) and N-hydroxysuccinimide (NHS). The antibodies were coupled at pH 4.5 in 10 mM sodium acetate. Any remaining reactive sites on the surface were blocked by reaction with ethanolamine. […] Association data was collected for 2 min followed by 10 min of dissociation. The surface was regenerated with 30 μL of 100 mM H3PO4 100 μL/min. All samples were prepared in D-PBS containing 3 mM EDTA and 0.005% surfactant P20. Data reported is the difference in SPR signal between the flow cell containing the captured antibody or Fab and a reference cell without captured antibody or Fab. Additional instrumental contributions to the signal were removed by subtraction of the data from the blank injection from the reference-subtracted signal. Data were performed in triplicate and analyzed by fitting association and dissociation phases at all concentrations (global fit) with a 1:1 binding model using the BIAevaluation software (BIAcore, Inc.). […] Data presented is an average.

[7] = target: T5, Recombinant human CD123 SP2 ECD protein (human, UniProt P26951 101-303); assay: SPR Biacore 3000, captured Fab
T5 construct: also called rhCD123 SP2; CD123 ECD SP2
T5 sequence: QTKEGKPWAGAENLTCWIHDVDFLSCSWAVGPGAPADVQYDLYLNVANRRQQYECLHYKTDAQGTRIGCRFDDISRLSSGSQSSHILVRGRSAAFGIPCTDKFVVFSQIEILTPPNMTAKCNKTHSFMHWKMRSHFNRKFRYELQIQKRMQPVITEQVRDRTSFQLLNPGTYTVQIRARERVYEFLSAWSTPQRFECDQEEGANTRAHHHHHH
Method: as §2

[8] = target: T1, human CD123 SP1 ECD displayed on …; assay: MSD-CAT, hCD123 cells, assay-1
Method: as §1

[9] = target: T1, human CD123 SP1 ECD displayed on …; assay: MSD-CAT, hCD123 cells, assay-2
Method: as §1

[10] = target: T3, cyno CD123 ECD displayed on …; assay: MSD-CAT, cynoCD123 cells, assay-1
Method: (§3) The MSD-CAT was developed in-house as a label-free method to determine affinity using intact cells in a high throughput format. […] Cell lines used were human pDisplay CD and cyno pDisplay CD123SP1. […] These samples were prepared in DMEM Glutamax medium containing 0.05% Azide, 1% BSA, 3 mM EDTA. The receptor numbers of (3.15-4.18)×10⁶ hCD123/cell and (4.78-9.24) 10⁶ cyCD123/cell were converted to M receptor concentration in the mixture on the basis of the volume of reaction, the cell density (cells/L) and the Avogadro's number. […] After equilibration the plate was centrifuged for 5 min ˜1000 rpm and free anti-CD3 detected on the supernatant.

[11] = target: T3, cyno CD123 ECD displayed on …; assay: MSD-CAT, cynoCD123 cells, assay-2
Method: as §3

[12] = target: T4, Recombinant human CD123 SP1 ECD-His tag …; assay: SPR ProteOn, captured mAb
[13] = target: T3, cyno CD123 ECD displayed on …; assay: MSD cell binding assay, signal 3x over background
Method: The object of the screening assay was to identify antibodies that bound to cells expressing hCD123 SP1 and SP2 as well as cross reactivity with cells expressing cynoCD123 SP1.
Cells were immobilized and phages were assayed in triplicate. […] 5000 cells per well were plated into a 384 well plate (MA6000, cat. L21XB, MSD) and allowed to adhere for 2 hr. Cells were then blocked with 20% FBS in PBS (Gibco) for 15 mins. Antibody supernatants were then added and left at RT for 1 hr. Cells were washed 3 times with PBS and a ruthenium labeled secondary antibody (Jackson Immuno Research) was then added at 1 μg/mL and incubated for 1 hr at room temperature. A further washing step was then applied and 35 μL per well of MSD Read buffer T (surfactant free) was then added and incubated for 30 min for detection. Plates were then read using Sector Imager 2400 (MSD). Data was normalized to controls and graphed using GraphPad Prism Version 5. A positive binder was determined to be a hit with a signal 3× greater than background (FIGS. 2A, B and C).

[14] = target: T5, Recombinant human CD123 SP2 ECD protein; assay: SPR ProteOn, captured mAb
[15] = target: T2, human CD123 SP2 ECD displayed on …; assay: MSD-CAT on pDisplay cells
Method: The MSD-CAT was developed in-house as a label-free method to determine affinity using intact cells in a high throughput format. […] Cell lines used were human pDisplay CD123SP1 and pDisplay CD123SP2. […] These samples were prepared in DMEM Glutamax medium containing 0.05% Azide, 1% BSA, 3 mM EDTA. […] After equilibration the plate was centrifuged for 5 minutes ˜1000 rpm and free anti-CD3 detected on the supernatant. […] The assay buffer was removed without washing and 50 uL/well of 0.7 ug/mL of biotinylated antigen in assay buffer were added to MSD plates and incubated overnight (˜16 hours at 4° C.).

[16] = target: T4, Recombinant human CD123 SP1 ECD-His tag …; assay: SPR Biacore 3000, captured mAb
Method: as §2

[17] = target: T5, Recombinant human CD123 SP2 ECD protein; assay: SPR Biacore 3000, captured mAb
Method: as §2

B1: I3RB25 (antibody, V domains shown)
VH: QVQLVQSGAEVKKPGSSVKVSCKASGGTFSSYGISWVRQAPGQGLEWMGGISAIFGNANYAQKFQGRVTITADESTSTAYMELSSLRSEDTAVYYCARRFKWWESYFDYWGQGTLVTVSS
VL: not shown
[1]
  binding result: no binding (tested: 10 µg/mL)
[2]
  binding result: no binding (tested: 10 µg/mL)
[3]
  binding result: no binding (tested: 10 µg/mL)

B2: I3RB217 (antibody, human IgG4 S228P, kappa, F234A L235A, V domains shown)
VH: EVQLVQSGAEVKKPGESLKISCKGSGYSFTSYWISWVRQMPGKGLEWMGIIDPSDSDTRYSPSFQGQVTISADKSISTAYLQWSSLKASDTAMYYCARGDGSTDLDYWGQGTLVTVSS
VL: EIVLTQSPGTLSLSPGERATLSCRASQSVSSSYLAWYQQKPGQAPRLLIYGASSRATGIPDRFSGSGSGTDFTLTISRLEPEDFAVYYCQQDYGFPWTFGQGTKVEIKR
[4]
  IC50 (read off the curve): IL-3-induced CD123/CD131 heteromerization (RLU): ~0.1 µg/mL

B3: I3RB119 (Fab, V domains shown)
VH: B2 VH
VL: EIVLTQSPGTLSLSPGERATLSCRASQSVSSSYLAWYQQKPGQAPRLLIYGASSRATGIPDRFSGSGSGTDFTLTISRLEPEDFAVYYCQQDYGFPWTFGQGTKVEIK
notes: also called Fab I3RB119; I3RB18 Fab
[5]
  fold weaker than to human CD123 SP1: > 10 fold
[6]
  Kd: 1.8 nM
  koff: 0.000891 s⁻¹
  kon: 493000 M⁻¹ s⁻¹
[7]
  Kd: 0.4 nM
[8]
  Kd: 0.293 nM
[9]
  Kd: 0.367 nM
[10]
  Kd: > 15 nM
[11]
  Kd: > 11.9 nM

B4: I3RB21 (antibody, IgG1, V domains shown)
VH: QVQLVQSGAEVKKPGSSVKVSCKASGGTFSSYAISWVRQAPGQGLEWMGGIIPIFGTANYAQKFQGRVTITADESTSTAYMELSSLRSEDTAVYYCAREGWWGQGKFDYWGQGTLVTVSS
VL: EIVLTQSPATLSLSPGERATLSCRASQSVANFLAWYQQKPGQAPRLLIYAASNRATGIPARFSGSGSGTDFTLTISSLEPEDFAVYYCQQYFHWPYTFGQGTKVEIK
notes: IgG1
[12]
  Kd: 2.19 nM
  koff: 0.00114 s⁻¹
  kon: 521000 M⁻¹ s⁻¹
[13]
  binding result: binds

B5: I3RB2 (antibody, IgG1, V domains shown)
VH: EVQLLESGGGLVQPGGSLRLSCAASGFTFSGYWMHWVRQAPGKGLEWVSAIRSDGSSKYYADSVKGRFTISRDNSKNTLYLQMNSLRAEDTAVYYCAKDGVIEDTFDYWGQGTLVTVSS
VL: B4 VL with A30S, N31S, F32Y, A50D, Y91R, F92S, H93N, Y96L
notes: IgG1; also called I3RB02; 13RB2
[12]
  Kd: 4.5 nM
  koff: 0.00477 s⁻¹
  kon: 1.06e+06 M⁻¹ s⁻¹
[14]
  Kd: 1.85 nM
  koff: 0.00335 s⁻¹
  kon: 1.81e+06 M⁻¹ s⁻¹
[15]
  Kd: 0.036 nM
[16]
  Kd: 7.7 nM
  koff: 0.00372 s⁻¹
  kon: 481000 M⁻¹ s⁻¹
[17]
  Kd: 1.4 nM
